Test results published in patent publication US20080171059.

What was measured:
[1] = target: New York Esophageal 1 antigen (NY-ESO-1), P78358
[2] = target: Aga2p-N9V fusion surface-displayed on yeast, unmodified (G4S)3 linker (construct pCT-N9V, as in strain EBYN9V)

New York Esophageal 1 antigen (NY-ESO-1), P78358, sequence (P78358 whole entry, the tested form may be a part): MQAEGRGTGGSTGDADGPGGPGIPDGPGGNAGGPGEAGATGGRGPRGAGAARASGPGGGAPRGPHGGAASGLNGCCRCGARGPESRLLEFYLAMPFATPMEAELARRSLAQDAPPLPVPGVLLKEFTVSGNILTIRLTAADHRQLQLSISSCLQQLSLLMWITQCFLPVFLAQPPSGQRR

B1: recombinant human Cathepsin S (protein)
chain: LPDSVDWREKGCVTEVKYQGSCGACWAFSAVGALEAQLKLKTGKLVSLSAQNLVDCSTEKYGNKGCNGGFMTTAFQYIIDNKGIDSDASYPYKAMDQKCQYDSKYRAATCSKYTELPYGREDVLKEAVANKGPVSVGVDARHPSFFLYRSGVYYEPSCTQNVNHGVLVVGYGDLNGKEYWLVKNSWGHNFGEEGYIRMARNKGNHCGIASFPSYPEI
B1 was tested, and the “cleavage by Cathepsin S” value [1] was “the N-terminus of NY-ESO-1 (MQ|AE . . . ) ... are cleaved rapidly by Cathepsin S (at the positions indicated by the vertical bars)” and the CatS cleavage rank order [2] was 4 rank.
